The target in this assay is 1JO8-ZM109 (V1/V2 of HIV-1 strain ZM109 in the 1JO8 scaffold) (not stated | HIV-1 strain ZM109).

B1: antibody PG9 (antibody, V domains shown)
VH: QRLVESGGGVVQPGSSLRLSCAASGFDFSRQGMHWVRQAPGQGLEWVAFIKYDGSEKYHADSVWGRLSISRDNSKDTLYLQMNSLRVEDTATYFCVREAGGPDYRNGYNYYDFYDGYYNYHYMDVWGKGTTVTVSS
VL: QSALTQPASVSGSPGQSITISCNGTSNDVGGYESVSWYQQHPGKAPKVVIYDVSKRPSGVSNRFSGSKSGNTASLTISGLQAEDEGDYYCKSLTSTRRRVFGTGTKLTVL
In the case of B1, the fold lower affinity than for wild-type ZM109 gp120 came out at 3 fold.

(Values after paper PMC3406929.)
